The record followed here is patent US20180312587A1 (ADURO BIOTECH HOLDINGS EUROPE B V, published 2018).

The target in one assay is T1, human SIRPα variant 2 (human, UniProt P78324 31-504).
T1 construct: full length ORF on transfected CHO-K1 cells; also called hSIRPαV2; SIRPαV2
Description: CELISA, CHO-K1 transfectants; average of two experiments. The protocol:
(§1) The binding specificity of antibody hSIRPα.50A to hSIRPα was compared antibody KWAR23 (Canadian Patent 2939293 A1), in a CELISA format. CHO-K1 cells were transiently transfected with hSIRPαV1, hSIRPαV2, hSIRPβ1, and hSIRPγ (GenBank accession: NM_018556.3) (SEQ ID NO: 39) cDNAs. Subsequently, hSIRPα binding was assessed by CELISA using CHO-K1.hSIRPαV1, CHO-K1.hSIRPαV2, CHO-K1.hSIRPβ1, and CHO-K1.hSIRPγ cells. Detection of bound antibody was performed with goat-anti-mouse IgG-HRP (Southern Biotech) for mouse antibodies including hSIRPα.50A and control antibodies or, alternatively, with goat-anti-human IgG-HRP conjugate (Jackson Immuno Research) for the KWAR23 antibody. KWAR23 (SEQ ID NO: 130; SEQ ID NO: 131) was expressed as a chimeric human IgG4 kappa antibody in CHO cells. As shown in FIG. 2 and the following Table 9, KWAR23 antibody cross-reacts with all members of the SIRP receptor family tested: it binds to hSIRPαV1, hSIRPαV2, hSIRPβ1, and hSIRPγ.
(§2) In addition, the specificity of hSIRPα.50A for all known of hSIRPα alleles (allelic variants as described by Takenaka et al., 2007, Nat Immunol. 8:1313-1323) was further investigated by CELISA using the same strategy as above. To this end, hSIRPα.50A binding was assessed using CHO-K1 cells that were transiently transfected with cDNAs encoding full length hSIRPαV1, hSIRPαV2, hSIRPαV3 (NA07056_V3) (SEQ ID NO: 43), hSIRPαV4 (NA11832_V4) (SEQ ID NO: 45), hSIRPαV5 (NA18502_V5) (SEQ ID NO: 47), hSIRPαV6 (NA18507_V6) (SEQ ID NO: 49), hSIRPαV8 (NA18570_V8) (SEQ ID NO: 51), and hSIRPαV9 (NA18943_V9) (SEQ ID NO: 53).

The target in assay [1] is T2, human SIRPα variant 1 (human, UniProt P78324 31-504).
T2 construct: full length ORF on transfected CHO-K1 or HEK293 cells; entry includes the signal peptide; also called hSIRPαV1; SIRPαV1
T2 sequence (P78324 31-504 limits assumed, change not shown): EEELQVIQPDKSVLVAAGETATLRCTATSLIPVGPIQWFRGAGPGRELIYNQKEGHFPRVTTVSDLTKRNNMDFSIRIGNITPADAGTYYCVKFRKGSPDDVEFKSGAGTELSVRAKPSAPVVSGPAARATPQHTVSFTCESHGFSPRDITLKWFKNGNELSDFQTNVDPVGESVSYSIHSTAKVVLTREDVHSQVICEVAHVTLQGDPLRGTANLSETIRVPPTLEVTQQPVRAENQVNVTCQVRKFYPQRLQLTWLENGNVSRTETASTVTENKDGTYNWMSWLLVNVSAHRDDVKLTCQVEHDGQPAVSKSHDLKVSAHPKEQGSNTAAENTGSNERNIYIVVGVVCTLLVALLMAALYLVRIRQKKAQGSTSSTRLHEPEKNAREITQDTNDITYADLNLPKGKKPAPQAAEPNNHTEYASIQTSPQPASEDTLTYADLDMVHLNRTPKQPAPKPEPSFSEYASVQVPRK
The description is as above. The procedure:
as §1, §2

In a further assay the target is T3, hSIRPαV8 (NA18570_V8) (human, UniProt P78324 31-504).
T3 construct: also called human SIRPαV8
T3 sequence (P78324 other isoform, or with tags, fused parts or gaps limits assumed): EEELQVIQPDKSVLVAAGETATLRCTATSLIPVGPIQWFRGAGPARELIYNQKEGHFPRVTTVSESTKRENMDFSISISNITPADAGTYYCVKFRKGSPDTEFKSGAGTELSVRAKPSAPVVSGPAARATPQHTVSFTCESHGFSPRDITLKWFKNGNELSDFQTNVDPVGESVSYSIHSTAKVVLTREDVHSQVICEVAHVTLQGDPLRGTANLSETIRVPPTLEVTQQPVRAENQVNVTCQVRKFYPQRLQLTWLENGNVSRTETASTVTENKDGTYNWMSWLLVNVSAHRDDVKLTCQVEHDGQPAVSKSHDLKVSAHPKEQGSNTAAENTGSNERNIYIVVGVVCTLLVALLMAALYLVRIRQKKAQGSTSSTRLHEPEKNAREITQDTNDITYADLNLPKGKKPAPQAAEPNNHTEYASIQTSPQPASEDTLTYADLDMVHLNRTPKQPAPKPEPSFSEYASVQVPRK
The assay is described as above. The procedure: as §1, §2

Another assay deals with T4, hSIRPαV9 (NA18943_V9) (human, UniProt P78324 31-504).
T4 construct: also called human SIRPαV9
T4 sequence (P78324 31-504 G109S limits assumed): as the sequence (P78324 31-504 limits assumed, change not shown) above, with G79S counted along it
Described as above. The protocol:
as §1, §2

In another assay the target is T5, hSIRPαV6 (NA18507_V6) (human, UniProt P78324 31-504).
T5 construct: also called human SIRPαV6
T5 sequence (P78324 31-504 S105P limits assumed): as the sequence (P78324 31-504 limits assumed, change not shown) above, with S75P counted along it
Described as above. The protocol:
as §1, §2

The target of a further assay is T6, hSIRPαV4 (NA11832_V4) (human, UniProt P78324 31-504).
T6 construct: also called human SIRPαV4
T6 chain: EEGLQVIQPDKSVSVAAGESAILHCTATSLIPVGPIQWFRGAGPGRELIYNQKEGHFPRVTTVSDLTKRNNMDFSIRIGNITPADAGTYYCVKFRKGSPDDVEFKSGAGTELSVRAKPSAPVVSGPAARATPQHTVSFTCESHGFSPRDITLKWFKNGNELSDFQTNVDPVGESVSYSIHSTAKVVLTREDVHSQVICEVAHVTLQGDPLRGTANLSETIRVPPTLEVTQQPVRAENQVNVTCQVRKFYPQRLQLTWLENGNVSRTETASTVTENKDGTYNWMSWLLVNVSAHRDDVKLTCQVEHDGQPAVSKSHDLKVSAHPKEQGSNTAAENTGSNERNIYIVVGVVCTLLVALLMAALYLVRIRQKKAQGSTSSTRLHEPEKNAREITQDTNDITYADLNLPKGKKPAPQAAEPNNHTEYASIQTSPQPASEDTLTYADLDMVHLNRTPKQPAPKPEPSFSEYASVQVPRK
Described as above. The protocol: as §1, §2

Another assay concerns the target T7, hSIRPαV5 (NA18502_V5) (human, UniProt P78324 31-504).
T7 construct: also called human SIRPαV5
The description is as above. The protocol:
as §1, §2

A further assay addresses T8, hSIRPαV3 (NA07056_V3) (human, UniProt P78324 31-504).
T8 construct: also called human SIRPαV3
Described as above. The protocol:
as §1, §2

Assay [2] concerns the target T9, hSIRPα expressed on primary human cells (human, UniProt P78324 31-504).
T9 construct: whole, on cells; also called hSIRPα on primary human CD14+ monocytes; on primary human granulocytes
Description: flow cytometry, blockade of DyLight488-hCD47/Fc binding to CD14+ enriched monocytes, donor 2. The procedure:
To assess the blocking ability of hSIRPα.50A, CD14+ enriched monocytes cells were seeded in 96-well round bottomed tissue culture plates and incubated for 45 minutes with FcR Blocking Reagent (Miltenyi Biotec) and hSIRPα.50A antibody (200 μg/mL and dilutions thereof) in PBS/1% BSA at 4° C. […] After this labeling procedure, cells were washed two times, resuspended in PBS/1% BSA containing 0.1 μg/mL DAPI (BioLegend), and analysed by flow cytometry on the FACSVerse (BD Biosciences). Data were processed and analysed with FlowJo V10 software (FlowJo, LLC). […] IC50 values represent the concentration at which half of the inhibition is observed.

In assay [3] the target is T2, human SIRPα variant 1. Description: flow cytometry, CHO-K1.hSIRPαV1 stable cells. The procedure:
Binding of the parental and humanized antibodies to hSIRPα was assessed by flow cytometry using the CHO-K1.hSIRPαV1 stable cell line. CHO-K1.hSIRPαV1 cells were seeded in 96-well round bottomed tissue culture plates and incubated for 40 minutes with the humanized hSIRPα.40A antibody variants (20 μg/mL and dilutions thereof) in PBS/1% BSA at 4° C. […] After this labeling procedure, cells were washed two times, resuspended in PBS/1% BSA, containing 0.1 μg/mL DAPI (BioLegend), and analysed by flow cytometry on the FACSVerse (BD Biosciences). Data were processed and analysed with FlowJo V10 software (FlowJo, LLC).

T9 sequence (P78324 31-504): as the sequence (P78324 31-504 limits assumed, change not shown) above
T7 sequence (P78324 other isoform, or with tags, fused parts or gaps limits assumed): as the sequence (P78324 31-504 limits assumed, change not shown) above, with S12F counted along it
T8 sequence (P78324 other isoform, or with tags, fused parts or gaps limits assumed): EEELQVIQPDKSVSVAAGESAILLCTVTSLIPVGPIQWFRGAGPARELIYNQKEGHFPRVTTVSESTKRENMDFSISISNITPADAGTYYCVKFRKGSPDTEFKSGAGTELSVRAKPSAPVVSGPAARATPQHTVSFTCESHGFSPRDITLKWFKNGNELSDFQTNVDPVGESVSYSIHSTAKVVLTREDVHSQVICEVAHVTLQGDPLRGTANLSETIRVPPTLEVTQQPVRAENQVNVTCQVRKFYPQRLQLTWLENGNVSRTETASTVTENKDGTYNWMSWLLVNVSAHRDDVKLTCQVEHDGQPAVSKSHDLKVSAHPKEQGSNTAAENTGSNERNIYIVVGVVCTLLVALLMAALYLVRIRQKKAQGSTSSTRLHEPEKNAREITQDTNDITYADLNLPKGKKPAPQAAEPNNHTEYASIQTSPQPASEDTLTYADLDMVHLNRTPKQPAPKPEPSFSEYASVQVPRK
T1 sequence (P78324 other isoform, or with tags, fused parts or gaps mutant limits assumed): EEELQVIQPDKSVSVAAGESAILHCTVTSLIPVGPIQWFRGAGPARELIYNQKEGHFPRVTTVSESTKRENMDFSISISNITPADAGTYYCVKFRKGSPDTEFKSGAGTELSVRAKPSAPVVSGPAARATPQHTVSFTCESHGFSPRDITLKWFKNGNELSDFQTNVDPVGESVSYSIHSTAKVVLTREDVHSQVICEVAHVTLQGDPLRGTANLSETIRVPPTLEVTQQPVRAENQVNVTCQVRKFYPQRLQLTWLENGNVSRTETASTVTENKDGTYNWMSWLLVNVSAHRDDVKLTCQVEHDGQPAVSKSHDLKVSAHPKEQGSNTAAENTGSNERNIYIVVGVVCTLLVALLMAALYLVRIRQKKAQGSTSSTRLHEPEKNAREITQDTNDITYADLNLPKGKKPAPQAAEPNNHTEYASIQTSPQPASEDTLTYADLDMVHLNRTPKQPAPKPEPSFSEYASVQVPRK

B1: hSIRPα.50A (antibody, V domains shown)
VH: QVQLQQSGPELVKPGASVRISCKASGFTFTNYYIHWVKQRPGQGLEWIGWIYPGNVNTKYNEKFKAKATLTADKSSTTAYMQLSSLASEDSAVYFCARPTIIATDFDVWGAGTTVTVSS
VL: DIVMTQSHKFMSTSVGDRVNITCKASQGVGTAVGWYQQKPGQSPRLLIYWASTRHTGVPDRFTGSGSGTDFSLAISNVQSEDLADYFCQQYSTYPFTFGGGTNLEIK
notes: light chain constant domain not tied; also called mouse hSIRPα.50A; hSIRPα.50A.mIgG1
With B1, the EC50 with human SIRPα variant 2 turned out to be 665 pM; in the assay with human SIRPα variant 1 [1], 936 pM; with hSIRPαV8 (NA18570_V8) it was 644 pM; with hSIRPαV9 (NA18943_V9), 733 pM; in the assay with hSIRPαV6 (NA18507_V6), 954 pM; with hSIRPαV4 (NA11832_V4), 824 pM. The figures for the EC50 with hSIRPαV5 (NA18502_V5) and in the assay with hSIRPαV3 (NA07056_V3) were 765 pM and 688 pM, respectively. This molecule also came in with an IC50 in [2] of 1040 pM.

B2: hSIRPα.40A (antibody, mouse IgG1, kappa, V domains shown)
VH: EVQFQQSGTVLARPGTSVKMSCKASGSTFTSYWMHWVKQGPGQGLQWIGAIYPVNNDTTYNQKFKGKAELTVVTSTSTAYMEVSSLTNEDSAVYYCTRSFYYSLDAAWFVYWGQGTLVTVSA
VL: DIQMTQSPSSLSASLGERVSLTCRASQDIGSRLNWLQQEPDGTIKRLIYATSSLDSGVPKRFSGSRSGSDYSLTISGLESEDFVDYYCLQYASSPFTFGGGTKLEINR
notes: mouse antibody, full chains without signal peptide; also called mouse hSIRPα.40A
The molecule B2 gave an EC50 with human SIRPα variant 1 [3] of 22 pM.
